From patent US20240010696A1

Target: human IL-12 receptor on cells (human) (UniProt P42701)
Assay: cell-based or functional assay

Sequence of human IL-12 receptor on cells (human) (Q99665 24-862, chain 2 of 2, other chains not shown): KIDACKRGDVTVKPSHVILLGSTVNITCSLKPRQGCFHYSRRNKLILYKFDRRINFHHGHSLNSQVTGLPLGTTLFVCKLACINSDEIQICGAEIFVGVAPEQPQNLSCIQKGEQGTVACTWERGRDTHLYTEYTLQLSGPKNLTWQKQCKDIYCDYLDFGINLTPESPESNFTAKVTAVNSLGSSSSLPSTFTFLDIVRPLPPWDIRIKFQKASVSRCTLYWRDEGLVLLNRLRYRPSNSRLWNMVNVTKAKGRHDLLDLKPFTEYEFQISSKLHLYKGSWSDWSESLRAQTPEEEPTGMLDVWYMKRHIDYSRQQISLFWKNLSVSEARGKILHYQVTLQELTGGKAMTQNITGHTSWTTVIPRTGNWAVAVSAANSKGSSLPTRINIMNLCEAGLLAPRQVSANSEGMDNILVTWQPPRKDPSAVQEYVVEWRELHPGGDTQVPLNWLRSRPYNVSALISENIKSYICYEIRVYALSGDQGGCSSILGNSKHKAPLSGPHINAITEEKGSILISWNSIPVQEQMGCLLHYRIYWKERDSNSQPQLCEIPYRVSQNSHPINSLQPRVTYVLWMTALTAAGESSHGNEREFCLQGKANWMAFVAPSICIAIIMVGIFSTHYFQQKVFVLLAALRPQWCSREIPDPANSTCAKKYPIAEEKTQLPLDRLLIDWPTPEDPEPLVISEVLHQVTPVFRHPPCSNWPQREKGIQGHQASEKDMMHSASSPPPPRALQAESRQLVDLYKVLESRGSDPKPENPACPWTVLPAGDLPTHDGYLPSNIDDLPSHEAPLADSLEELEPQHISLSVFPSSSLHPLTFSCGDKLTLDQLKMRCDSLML

WT IL-12 (row of Table 10)
EC50 (ug/ml) hIL12R+ PD1+ cells (pSTAT4 reporter cell line, PD1-positive): 0.03 µg/ml
EC50 (ug/ml) hIL12R+ cells (pSTAT4 reporter cell line, PD1-negative): 0.1 µg/ml
